Reference: patent US20090162366A1 (KIRIN PHARMA, published 2009)

Legend:
BSA = BSA (UniProt P02769 25-607); assay: ELISA
OVA = biological target: T1, OVA (UniProt P01012 2-386); assay: ELISA
T1 sequence: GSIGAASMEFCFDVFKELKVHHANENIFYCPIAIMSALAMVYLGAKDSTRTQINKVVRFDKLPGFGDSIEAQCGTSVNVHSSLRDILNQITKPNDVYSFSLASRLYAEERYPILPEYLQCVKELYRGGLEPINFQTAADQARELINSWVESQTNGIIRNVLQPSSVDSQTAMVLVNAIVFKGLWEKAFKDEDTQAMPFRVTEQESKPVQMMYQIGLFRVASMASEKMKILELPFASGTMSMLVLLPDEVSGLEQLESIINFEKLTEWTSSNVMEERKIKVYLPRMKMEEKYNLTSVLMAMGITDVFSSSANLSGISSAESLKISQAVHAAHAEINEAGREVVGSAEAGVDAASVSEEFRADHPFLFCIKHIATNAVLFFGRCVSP

Chain of BSA (P02769 25-607 limits assumed): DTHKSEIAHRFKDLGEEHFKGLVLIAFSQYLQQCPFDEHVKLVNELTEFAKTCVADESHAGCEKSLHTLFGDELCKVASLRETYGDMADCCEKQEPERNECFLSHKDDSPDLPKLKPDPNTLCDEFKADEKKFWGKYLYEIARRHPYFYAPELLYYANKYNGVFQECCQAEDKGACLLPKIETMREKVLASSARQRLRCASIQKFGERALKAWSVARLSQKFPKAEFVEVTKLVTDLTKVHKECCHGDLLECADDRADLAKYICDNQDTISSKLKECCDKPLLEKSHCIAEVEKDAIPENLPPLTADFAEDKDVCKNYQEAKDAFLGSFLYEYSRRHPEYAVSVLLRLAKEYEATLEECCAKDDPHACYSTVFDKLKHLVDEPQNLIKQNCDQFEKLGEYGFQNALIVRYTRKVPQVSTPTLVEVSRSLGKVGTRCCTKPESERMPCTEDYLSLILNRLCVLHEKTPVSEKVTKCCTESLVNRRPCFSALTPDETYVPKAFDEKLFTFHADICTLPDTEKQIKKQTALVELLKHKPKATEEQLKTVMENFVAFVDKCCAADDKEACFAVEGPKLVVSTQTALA

B1: C40 (antibody, V domains shown)
VH: QLQLQESGPGLVKPSETLSLTCTVSGGSISSSFYYCGWIRQPPGKGLEWIGSIYYRGSTYYNPSLKSRVTISVDTSKNQFSLKLSSVTAADTAVYYCARRVTMVRGVKGDYFDYWGQGTLVTVSS
VL: DIQMTQSPSSLSASVGDRVTITCRASQGISSWLAWYQQKPEKVPKSLIYAASSLQSGVPSRFSGSGSGTDFTLTISSLQPEDFATYYCQQYNYYPLTFGGGTKVEIKR
Question: Does B1 bind (BSA)?
Answer: no binding (tested: below 0.1 at OD450nm)

Question: Does B1 bind (OVA)?
Answer: no binding (tested: below 0.1 at OD450nm)

B2: L66 (antibody, V domains shown)
VH: EVQLVESGGGVVRPGGSLRLSCAASGFTFDDYGMSWVRQAPGKGLEWVSGINWNGGSTGYADSVKGRFTISRDNAKNSLYLQMNSLRAEDTALYYCARDRVTMVRGVIMDYYGMDVWGQGTTVTVSS
VL: QTVVTQEPSLTVSPRGTVTLTCSSSTGAVTSGYYPGWFQLKPGQAPMSLIYSARKKHSWTPARFSGSLLGGKAALTLSGVQPEDEAEYYCLLYYGGAYVFGTGTKVTVLG
Question: Which results are given for B2?
Answer: binding result (BSA): no binding (tested: below 0.1 at OD450nm); binding result (OVA): no binding (tested: below 0.1 at OD450nm)

B3: N547 (antibody, V domains shown)
VH: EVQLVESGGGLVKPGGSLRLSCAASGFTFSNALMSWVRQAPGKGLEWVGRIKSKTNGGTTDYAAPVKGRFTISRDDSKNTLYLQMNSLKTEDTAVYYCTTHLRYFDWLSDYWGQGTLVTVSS
VL: QSVLTQPPSMSAAPGQKVTISCSGSSSNIGNNYISWYQQLPGTAPKVLIYDNNKRPSGIPDRFSGSKSGTSATLGITGLQTGDEADYYCGSWDSSLSAGVFGTGTKVTVLG
Question: Does B3 bind (BSA)?
Answer: no binding (tested: below 0.1 at OD450nm)

Question: Does B3 bind (OVA)?
Answer: no binding (tested: below 0.1 at OD450nm)

B4: C40G1 (antibody, V domains shown)
VH: QLQLQESGPGLVKPSETLSLTCTVSGGSISSSFYYCGWIRQPPGKGLEWIGSIYYRGSTYYNPSLKSRVTISVDTSKNQFSLKLSSVTAADTAVYYCARRVTMVRGVKGDYFDYWGQGTLVTVSS
VL: DIQMTQSPSSLSASVGDRVTITCRASQGISSWLAWYQQKPEKVPKSLIYAASSLQSGVPSRFSGSGSGTDFTLTISSLQPEDFATYYCQQYNYYPLTFGGGTKVEIKR
Question: Does B4 bind (BSA)?
Answer: no binding (tested: below 0.1 at OD450nm)

Question: Does B4 bind (OVA)?
Answer: no binding (tested: below 0.1 at OD450nm)
